In US20250270343A1 (Alector, published 2025):
Numbering of substitutions follows the chain as printed.

T1: soluble mouse GPNMB (recombinant extracellular domain) (mouse, UniProt Q99P91 23-502)
T1 construct: also called moGPNMB; not shown: C-terminal polyhistidine or Avi-His tag
T1 sequence: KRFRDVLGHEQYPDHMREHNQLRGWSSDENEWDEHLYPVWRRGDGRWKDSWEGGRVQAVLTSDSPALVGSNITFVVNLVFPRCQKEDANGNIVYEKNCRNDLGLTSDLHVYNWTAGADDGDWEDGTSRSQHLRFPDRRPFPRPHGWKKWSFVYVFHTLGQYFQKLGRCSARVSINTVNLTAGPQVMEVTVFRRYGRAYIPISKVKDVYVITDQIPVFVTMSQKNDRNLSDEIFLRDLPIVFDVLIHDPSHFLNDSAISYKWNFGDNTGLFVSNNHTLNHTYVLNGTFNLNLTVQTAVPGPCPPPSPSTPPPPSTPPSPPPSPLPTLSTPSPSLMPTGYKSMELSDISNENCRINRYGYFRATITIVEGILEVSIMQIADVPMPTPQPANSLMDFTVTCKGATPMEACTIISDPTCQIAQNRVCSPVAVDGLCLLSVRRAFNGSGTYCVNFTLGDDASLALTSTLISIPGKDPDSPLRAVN

T2: soluble cynomolgus GPNMB (recombinant extracellular domain) (cynomolgus, UniProt Q14956 23-499 (human entry), limits assumed)
T2 chain: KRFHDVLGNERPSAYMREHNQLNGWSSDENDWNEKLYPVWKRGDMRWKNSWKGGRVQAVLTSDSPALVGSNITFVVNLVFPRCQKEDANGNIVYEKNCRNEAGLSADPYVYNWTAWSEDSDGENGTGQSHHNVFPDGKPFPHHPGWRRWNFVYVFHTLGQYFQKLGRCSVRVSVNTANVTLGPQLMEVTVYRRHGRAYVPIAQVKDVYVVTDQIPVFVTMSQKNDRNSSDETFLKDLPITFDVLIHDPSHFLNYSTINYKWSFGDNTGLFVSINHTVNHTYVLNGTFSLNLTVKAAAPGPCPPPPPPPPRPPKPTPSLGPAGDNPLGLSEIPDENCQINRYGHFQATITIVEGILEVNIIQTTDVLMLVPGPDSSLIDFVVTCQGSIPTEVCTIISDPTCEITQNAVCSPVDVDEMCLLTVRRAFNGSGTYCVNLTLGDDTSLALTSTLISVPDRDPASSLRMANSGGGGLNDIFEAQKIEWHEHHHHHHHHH

T3: soluble human GPNMB (recombinant extracellular domain) (human, UniProt Q14956 23-498)
T3 construct: also called huGPNMB; recombinant human GPNMB extracellular domain; not shown: C-terminal polyhistidine or Avi-His tag
T3 sequence: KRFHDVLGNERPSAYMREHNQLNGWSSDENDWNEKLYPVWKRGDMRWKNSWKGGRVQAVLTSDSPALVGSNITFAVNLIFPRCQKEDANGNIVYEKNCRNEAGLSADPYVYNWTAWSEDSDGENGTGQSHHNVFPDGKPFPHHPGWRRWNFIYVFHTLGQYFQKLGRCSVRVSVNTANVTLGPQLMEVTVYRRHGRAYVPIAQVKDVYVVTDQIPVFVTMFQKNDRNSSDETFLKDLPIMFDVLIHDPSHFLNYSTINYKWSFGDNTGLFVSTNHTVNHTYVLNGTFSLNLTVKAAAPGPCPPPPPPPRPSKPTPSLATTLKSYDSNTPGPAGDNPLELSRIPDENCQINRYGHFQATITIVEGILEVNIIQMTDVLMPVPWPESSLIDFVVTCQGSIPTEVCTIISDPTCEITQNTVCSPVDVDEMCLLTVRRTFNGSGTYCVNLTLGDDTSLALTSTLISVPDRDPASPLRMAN

T4: full-length untagged human GPNMB expressed on cells (human, UniProt Q14956 23-572)
T4 sequence: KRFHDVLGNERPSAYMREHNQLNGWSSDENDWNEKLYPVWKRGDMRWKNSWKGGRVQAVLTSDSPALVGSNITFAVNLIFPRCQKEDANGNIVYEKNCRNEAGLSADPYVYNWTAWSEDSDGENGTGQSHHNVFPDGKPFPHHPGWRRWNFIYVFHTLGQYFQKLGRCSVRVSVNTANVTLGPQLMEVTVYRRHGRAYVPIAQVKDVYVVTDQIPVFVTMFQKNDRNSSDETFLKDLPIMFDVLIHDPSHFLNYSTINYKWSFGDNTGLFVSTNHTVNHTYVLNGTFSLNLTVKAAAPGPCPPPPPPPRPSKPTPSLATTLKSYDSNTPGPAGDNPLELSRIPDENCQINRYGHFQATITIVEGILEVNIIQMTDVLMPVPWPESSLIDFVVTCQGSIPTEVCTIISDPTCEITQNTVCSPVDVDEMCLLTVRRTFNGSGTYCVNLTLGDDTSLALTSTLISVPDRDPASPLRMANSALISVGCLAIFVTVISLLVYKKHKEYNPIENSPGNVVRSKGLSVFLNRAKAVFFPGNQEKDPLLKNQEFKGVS

B1: anti-GPNMB antibody GPN-82 (antibody, V domains shown)
VH: QVQLQESGPGLVKPSETLSLTCTVSGISITTGNYRWSWIRQPPGKGLEWIGYIYYSGTIIYNPSLKSRVTITRDTSKNQFSLELSSVTAADTAVYYCARDLTHWYFDVWGQGTLVTVSS
VL: DIVMTQSPDSLAVSLGERATINCKSSRSVDYYGIGFLNWYQQKPGQPPKLLIYATSTQGSGVPDRFSGSGSGTDFTLTISSLQAEDVAVYYCQQQKEVPPTFGGGTKVEIK
B2: anti-GPNMB antibody GPN-92 (antibody, V domains shown)
VH: QVQLVQSGAEVKKPGASVKVSCKASGYTFTSYWMHWVRQAPGQGLEWMGEINPSDGRTNYAQKFQGRVTMTVDKSTSTVYMELSSLRSEDTAVYYCARSGGNYAWFAYWGQGTLVTVSS
VL: DIVMTQSPDSLAVSLGERATINCKASQDVSPSLAWYQQKPGQPPKLLIYSASYRYTGVPDRFSGSGSGTDFTLTISSLQAEDVAVYYCQQHYSIPLTFGGGTKVEIK
notes: humanized GPN-08
B3: anti-GPNMB antibody GPN-93 (antibody, V domains shown)
VH: B2 VH with S54Y, G56Q, G100T
VL: B2 VL with A25T, Y53K, T97Q
B4: anti-GPNMB antibody GPN-94 (antibody, V domains shown)
VH: B2 VH with S54Y, G56Q, G100T
VL: B2 VL with A25T, Y53K
B5: anti-GPNMB antibody GPN-95 (antibody, V domains shown)
VH: B2 VH with S54Y, G56Q, G100T
VL: B2 VL with A25T, S52R, T97Q
notes: also called PGN-95
B6: anti-GPNMB antibody GPN-96 (antibody, V domains shown)
VH: B2 VH with S54Y, G56Q, G100T
VL: B2 VL with S50R

Each binder was assayed against T1, soluble mouse GPNMB (recombinant …) (assay: SPR Biacore, IgG captured).
Protocol: (§1) Binding kinetics of the humanized and affinity matured anti-GPNMB antibodies described above were evaluated using the Biacore T200 (Cytiva). Briefly, IgGs were diluted to 10 μg/mL and captured using a Protein A/G (ThermioFisher, #21186) surface on a CM5 chip that was prepared by amine coupling according to the instrument manufacturer's recommendations. The captured antibodies were tested for their ability to bind human, cynomolgus monkey, and mouse GPNMB recombinant proteins as follows.
(§2) Human, cynomolgus, and mouse GPNMB analytes were diluted in running buffer (HBS-EP+, Teknova, #8022, with 0.5 mg/ml BSA, MP Biomedicals LLC, #820451), to a concentration of 300 nM, then diluted 3-fold serially to 100 nM, 33 nM, and 11 nM. Each sample was injected for 2 minutes to allow association, followed by dissociation in buffer alone for 10 minutes. Each sample injection was followed by the regeneration of the chip with three 30-second injections of 10 mM glycine, pH 1.7. Fresh antibody was captured at the beginning of each cycle.
(§3) Data were analyzed using Biacore evaluation software to generate kinetic constants. The equilibrium dissociation constants (KD) were calculated from the fitted association and dissociation rate constants (k-on and k-off) for each of the anti-GPNMB antibodies.

Row | Binder | Kd [nM] | koff [s⁻¹] | kon [M⁻¹ s⁻¹]
1 | B1 | 2.6 | 0.00039 | 150000

Molecular target: T2, soluble cynomolgus GPNMB (recombinant …)
Experiment: SPR Biacore, IgG captured
Protocol: as §1, §2, §3

Row | Binder | Kd [nM] | koff [s⁻¹] | kon [M⁻¹ s⁻¹]
2 | B1 | 13.5 | 0.0022 | 160000
3 | B2 | 67.8 | 0.0057 | 83000
4 | B3 | 10.6 | 0.00071 | 67000
5 | B4 | 6.5 | 0.00051 | 78000
6 | B5 | 8.3 | 0.0006 | 71000
7 | B6 | 3.2 | 0.00025 | 77000

The binders below were run against T3, soluble human GPNMB (recombinant …) (assay: SPR Biacore, IgG captured).
Protocol: as §1, §2, §3

Row | Binder | Kd [nM] | koff [s⁻¹] | kon [M⁻¹ s⁻¹]
8 | B1 | 11.9 | 0.0024 | 200000
9 | B2 | 66.5 | 0.005 | 75000
10 | B3 | 8.7 | 0.00059 | 68000
11 | B4 | 5.4 | 0.00042 | 78000
12 | B5 | 7.3 | 0.00053 | 73000
13 | B6 | 2.5 | 0.0002 | 78000

What follows are binders tested against T4, full-length untagged human GPNMB … (assay: cell-based or functional assay).

Row | Binder | EC50 PDL1 [nM] | Fold Increase CD40 (max response at 1 µg/ml) [fold] | Fold Increase PDL1 (max response at 1 µg/ml) [fold]
14 | B1 | 1.94 | 2.29 | 4.6
15 | B2 | 1.36 | 1.59 | 1.99
16 | B3 | – | 1.87 | 2.18
17 | B4 | 1.14 | 1.72 | 1.88
18 | B5 | 0.7 | 1.74 | 1.97
19 | B6 | 0.58 | 1.72 | 1.9

The binders below were run against T4, full-length untagged human GPNMB … (assay: FACS titration, FS293-huGPNMB+ cells).
Protocol: Affinity matured anti-GPNMB antibodies of the present disclosure were examined to determine their ability to bind human and mouse GPNMB expressed on FS293-huGPNMB+ or B16F10 cells, respectively. Cell-based affinity measurements were performed to ascertain the apparent affinities of anti-GPNMB antibodies to cell-surface expressed GPNMB. Serial dilutions of anti-GPNMB antibodies of the present disclosure were added to 100,000 FS293-huGPNMB+ or B16F10 cells and allowed to achieve binding equilibrium at 4° C. After addition of fluorescently labeled secondary antibody and brief washing steps, MFI values as a function of titrated antibody concentration were recorded via FACS analysis. Equilibrium binding curves were fit using nonlinear regression analysis with Graphpad Prism 6 software.

Row | Binder | EC50 [nM]
20 | B3 | 0.568
21 | B4 | 0.186
22 | B5 | 0.181
23 | B6 | 0.652

Molecular target: T4, full-length untagged human GPNMB …
Experiment: cell-based or functional assay
Remark: another data set of the same source

Row | Binder | Inflammasome: Fold Decrease IL-1β (max response at 0.3 µg/ml) [fold]
24 | B1 | 0.378
25 | B3 | 0.594
26 | B4 | 0.532
27 | B5 | 0.45
28 | B6 | 0.525

Molecular target: T4, full-length untagged human GPNMB …
Experiment: cell-based or functional assay
Remark: another data set of the same source

Row | Binder | EC50 GCase [nM] | EC50 Lyso Tracker [nM] | Fold Decrease Lyso Tracker (max response at 1 µg/ml) [fold] | Fold Increase GCase (max response at 1 µg/ml) [fold]
29 | B1 | 0.365 | 0.64 | 0.569 | 1.54
30 | B2 | 0.27 | – | – | 1.25
31 | B3 | 0.5 | – | – | 1.45
32 | B4 | 0.54 | – | – | 1.4
33 | B5 | 0.23 | – | – | 1.33
34 | B6 | 0.23 | – | – | 1.31

Each binder was assayed against T1, soluble mouse GPNMB (recombinant …) (assay: SPR Biacore T200, IgG captured on Protein A/G; nb = no binding observed).

Row | Binder | binding result
35 | B2 | no binding (tested: 300 nM highest analyte concentration)
36 | B3 | no binding (tested: 300 nM highest analyte concentration)
37 | B4 | no binding (tested: 300 nM highest analyte concentration)
38 | B5 | no binding (tested: 300 nM highest analyte concentration)
39 | B6 | no binding (tested: 300 nM highest analyte concentration)
